Assay: soluble on expression in E. coli; label from the status in PepcDB or PDB records

Row | Sequence | soluble on expression in E. coli
1 | MGSDKIHHHHHHMQIKNLSLKNKKDLQIWKEFLTEHGISNFSSAEVFKIDETIALFEDQRIVATGSLAGNVLKYIAVESEGSGSEFNSVISQLTNLAAGKGIFHLFVFTKAKYSKSFQFIGFKELAKSDNAALLESGDYLIGDYLAELPRVANQEEKKIAGIVMNANPFTKGHRYLVEKAASENDYVYVFVVSTDASLFNSKERLQLVKEGTADLKNVFVVSGGDYMVSYATFPAYFLTSDQTVIEYQTTLDALIFKNQIAPVLNIQTRFLGEEPFSKTTGIYNRILEKVLPPSVSVKIIPRAKTQSETIITATEVRQLIAKNNLVPLKQFLPFTTIKYVEEHKTELQSRIKKGININGN | not soluble
2 | VGGQVRIAANTSSITQFLPEDLAGFMQRHPAVRIHLEEQNSSDIVTAVAENRADVGIFADRTPAAGLTTVPYRLDELVLITPPRHPLAARAQVAFADTLDCDYVGLPPATSLATRLADESARLDKSIRLRIQVRSFDAICRMVVAT | not soluble
3 | MSHIRVAFAPLDTNPSTCGLETFATQIETLSQMMTAEEMKAELYDCVRRILREQKFDQIRENEAMLRLYKVMGRSSTNLKGRGIYEQLFKKDHFTGSLKFYLQWAEECGKDQMLEEFKDVLKLARDRLSERIEMTAIESGFRDLVDEYFNGESGDMFTRPDETMDLFRFNAGSKKKRRSSVCFLQHNVPINNSGKAAFGPKTKTDLRQACIDRPNYHGISIEEFRFAKWKDTFGEDVDDDYRKRKDSGVVFVKHQVIDTDRQAREEVENRFNANLNPRRRHLSPVSEKTVDDEEEKRSRIYSPLVATKDAHRPALRSKIENPPATVTLSSDTKSASEKDVSDSDDADDDERLKIMTAGRKDGNPPDRSTSISSNYSTASARTSKSGAGLDLMAENKCLEAHAMFSDTVHLASEKTMVLGDDSVFVPERSLATTQIVTDFSVLCDPDPTMTITQERPKKVSNGLNVVYDEAAEPEESQKVEESEVQPEIVLVSPVTQTSPATMFNDIYDDEIEFGFFKPSRGNFVTSTPAQGVHLVNIDEYFGNKEEESTHEQEAPVFVAPTSSTFSKLTRRKSLAANQAVQPSVTESSKPERSDPKDSSIDCLTANLGRRLSIGADEIPNLTENNESEITGCKIRRRSEIIKQGDINPWDETLRKKLMCLVRPPQNMHEFQERAPKIQALRDCEVSGEKLHIQTLIGQGGYAKVYRAVTDDQRTVAVKYEVPSCSWEVYICDQMRNRLKDRGLELMAKCCIMEVMDAYVYSTASLLVNQYHEYGTLLEYANNMKDPNWHITCFLITQMARVVKEVHASKIIHGDIKPDNFMITRKIDDKWGKDALMSNDSFVIKIIDWGRAIDMMPLKNQRFKGRAGTEAFDCPEMVDGRSWTYQADYFGFAATMAVVVAGKYAQLTGASVGDYSLNVDIKRRNILRDACYDVINRFLNIPSCDSLPDWNILIKSFSEIWNEKFEASGWRQAVSKFNEACDLAANQK | not soluble
4 | MQKKSIYVAYTGGTIGMQRSEQGYIPVSGHLQRQLALMPEFHRPEMPDFTIHEYTPLMDSSDMTPEDWQHIAEDIKAHYDDYDGFVILHGTDTMAYTASALSFMLENLGKPVIVTGSQIPLAELRSDGQINLLNALYVAANYPINEVTLFFNNRLYRGNRTTKAHADGFDAFASPNLPPLLEAGIHIRRLNTPPAPHGEGELIVHPITPQPIGVVTIYPGISADVVRNFLRQPVKALILRSYGVGNAPQNKAFLQELQEASDRGIVVVNLTQCMSGKVNMGGYATGNALAHAGVIGGADMTVEATLTKLHYLLSQELDTETIRKAMSQNLRGELTPDD | soluble
5 | MVADLMLCTNFFIFTGGPGSGKTAVLNELNTWGYLTVSEVARSIIQKQQADGGDAIHTGNRKAFRDLMLEQSIADYCKMQSEEKIVFFDRGIPDLYGYSKAFCGEASKEVNEAVGRFRYNKTVFIFPPWPEIYENDDERQQDYQEALQTYYAVKEGYFDCGYVLLEVPKCPIKDRANFIFQMISKNGLEHHHHHH | soluble
6 | MLSKISESLANLSGAERKVAECALAEPKWFVHAAVAEIAERASVSQPTVIRFCRSLGYKGLPEFKLALSASIGHEGMPYVHEELNADDDMASVVEKVLGNAAASLLGERRFLKESELENAIATLMHARRVEFYGVGNSGIVAQDAQHKFFRFGMSTVAYVDTHTQLMAASVLSDQDVLVAISNTGSSIELLDAVSIAKENGASVIALTRNDSPLAQLADCVLSVATQENAELYTPMVSRLLQLAVIDILAIGLALRLGDAASLQLQKSKKSIHNKHIDYDKD | soluble
7 | MTATSLWELAERARKRLSEIAKGNRDRALLAMADLLEARWEEVLRANREDLEEAERTGLPKAKLDRLALKEKDLKTLTEGLRQIARLPDPLGRIEGLAKRPNGLRVGRMRVPLGLIGFIYEARPGATVEAVSVALKAGNAMLLRGGKEAFRSNRALVALWHEALGEAGLPEEAVTLVPTTDREAVLEMCRLELLDLLIPRGGEELIRLVQREARVPVLAHAKGVNHLYVDKKADLSMALRLALNGKTQRPAVCNALETVLVHEKVAEAFLPRLEKAMREKGVELRACPRALPLLKEAVPAREDEWDREYLDLVLRVKVVSGLEEALAHIARYGSRHTEAICTEDPKAAWRFLEEVDASLVLWNASTRFNDGFELGLGAEIGISTSKLHAYGPMGPMELTTLKWVALGEGQERT | soluble
8 | MGLFTTRQLLGYTEQKVKFRALFLELFFRRTVNFHTEEVMLDKITGKTPVAAYVSPVVEGKVLRHRGGETRVLRPGYVKPKHEFNYQQAVERLPGEDPAQLNGPAYRRLRIITDNLKQEEHAIVQVEEMQAVNAVLYGKYTMEGEQFETVEVDFGRSVGNNITQAGGTEWSAQDRDTFDPTHDLDAYCDFASGTINIAIMDGKVWRLLNGFKLFREKLDTRRGSNSQLETAVKDLGAVVSFKGYYGDLAIVVAKTSYVAEDGTEKRYLPDGTLVLGNTAAEGIRCYGAIQDAQALSEGVVASSRYPKHWLTVGDPAREFTMTQSAPLMVLPDPDEFVVVQVK | not soluble
9 | MAHHHHHHMVAPSGRTGRRTTRRRTLHTGAGTTVTQRSARLPSRLRRVSTLKTSRAPSCLSTSARLRLFRRRRTCWRCWSERASPYQSSATTPSSPPETAVCAWCRTALRTSSSRAPPWRYLACPSSPTAACAMPARAMWSLSSTTRTTARFASRPPTAICRTATTAPTSRATARTRKPSRTSTLTPRHASCTAASTARAASASTSTRRTSTSARLAAAGARFPPFMNWRRRTTICPFLSYAPSGSCTWAMQTRTTTCASSRLRGQRR | soluble
10 | RTFRHYDAYRSQSGTTGTDAARFILSQSGINDVGVQKISGDLTDNYNGQTKILSLSEATADSTSVAAIGVAAHECGHAVQDHVNYWPMRLRTALVP | not soluble
11 | MGSDKIHHHHHHAEVAVPDTTPKDTASAVKITYEDPRDPFEGFNRVMWDFNYLYLDRYLYRPVAHGYNDYIPLPAKMGVNNFLQNLEEPSSVVNNLLQGKWGWAANAGGRFTVNTTIGLLGVIDVADMMGMTRKQDEFNEVLGYYGVPNGPYFMAPFAGPYIVRELASDWVDGLYFPLSELTMWQSVLKWGLKSLHARASAIDQERLVDNALDPYAFVKDAYIQHMDYKVYDGNVPQKQEDDELLDQYMQELE | not soluble
12 | MGDILMHYVRKAHEHEVNEVVKYPHTITNTELEEILVSGEECTVLDVREAAEFAFGHIPSATSMPLGELESLVLDKTKQIYVVCRTGNRSDVACQMLKEKGYTNVKNVIPGMIEWQGNIENLEHHHHHH | not soluble
13 | MAHHHHHHMSTRRLMHTMIRVGDLDRSIKFYTEALGMRLLRKWDCPEDKFTLVFLGYGTESETAVLELTYNYGQSEYKHGDAYGHIAIGVEDVNEEIARLKKMNVPIDYESEDGFMAFIVDPDGYYIELLNTERMLEKSREQMNEQGTA | soluble
14 | MGHHHHHHSHMKWASENGASVEGFEMVNFKEEGFGLRATRDIKAEELFLWVPRKLLMTVESAKNSVLGPLYSQDRILQAMGNIALAFHLLCERASPNSFWQPYIQTLPSEYDTPLYFEEDEVRYLQSTQAIHDVFSQYKNTARQYAYFYKVIQTHPHANKLPLKDSFTYEDYRWAVSSVMTRQNQIPTEDGSRVTLALIPLWDMCNHTNGLTPEDSFALAVASA | not soluble
15 | MMSKQPTSKRQWRDGAAPSAKKTAKPFKSKARPKDETGKTASQPYGQKASDGIKPQNVPKQRAAKAKKLVVRNPNQKIMEHARDLKERRSDLSRMEPERLQKVLAASGVGSRREMEEWITNGWITVNGKTAQLGDKVTPDDHVTVKGSIIKLKWADRLPRIILYYKQEGEIVSRDDPQGRVSIFDRLPQAASSRWVAIGRLDINTSGLLILTTSGELVQRFAHPSFEVEREYAVRVLGGLTGEQMRVLTEEGVMLEDGLAKVERIREQGGEGANKWYNVVIKEGRNREVRRIFESQGLTVSRLVRIGFGPIGLPNRLKRGQFYELNPAEVANIIKWADMLLPGERRRKKA | not soluble
16 | QAMKELSKSDRTRQFIIESTAPVFNVKGLAGTSLTDLTEATNLTKGSIYGNFENKEAVAIAAFDYNWGHVKSVLTAKVQACNTYKEMLLVYSSMYNDADGSLFPVGGCPLLNTTIEADDTHDALRKKAGEAILSWKKNLVTIIKKGIQAKEFRPDTDVTKIAFSMIALVEGAILIHRATKNRAYSDYVFESLEDLIAGIEVKKK | soluble
17 | MTVLVVRHGTAGSKAHFSGDDSKRPLDKRGRAQAEALVPQLLAFGATDVYAADRVRCHQTMEPLAAELNVTIHNEPTLTEESYANNPKRGRHRVLQIVEQVGTPVICTQGKVIPDLITWWCERDGVHPDKSRNRKGSTWVLSLSAGRLVTADHLEHHHHHH | not soluble
18 | MGSDKIHHHHHHMTYINAQGRLKGCKPIAVIDIGSNSVRLVIYEGLVRSPTVLFNEKILCGLGQGVAKTGLLEENSMNMALRTLKRFRALCLQIGADEIYILATAAAREAKNGLAFIQNAENILQNKIYLLSGSEEAVYSAYGVISTFYQPKGISGDLGGGSLELIDIDNSEVGEGITLPLGGLRLQYMSNNDIAVAAKIAQEQFGKSAVVHKSMARCFYAVGGTWRNLAKLHMATKHYRLPVMHGYEVDAVEMEDFLRFVVNGSIENMKGISAVSKNRRQLLSYGAIILIELIRCVGFEKIIFSGAGVREGFLYSRLPQEVRVSDPLIAACTEMAILRARSPKQAEELIDFTTNAFEVFGILETENECRYRKAACLLADIGWRIHPDYRGNEAANQIALGSYPGISHEGRAYAALAVFFRNTGSLIGEESLPIFQLASKDVIEKARILGEIMRIAHLFSASTTGVLPHLSWHKKIDHVVLHIPARYADLLGERPLSRLKKLSKIIELPLAFEIF | not soluble
19 | MSGKVVRPSAALLEVFKSWQGGAIRVQRNEKLKTRLDVILDRPEKNNCLSGEMMKQFGEHTELFSDDQNAIIVVSGVGKSFCSGADLGLIKDISDQKLGVQMFEYMSSILSLLHSSPAISIAKIHGHALGGATEICSSTDIRIAHSGSKIAFFQSKMGIVPSWGGAEYMEGIMGRGRALAAMGRANVMSAEEAKDQGYVDYVYKSEDEAENFINQVASAGLKVTRAQKAMLNAVKIGKTEQKQVLEAVWNGETHRNALQKQLEAVVKK | not soluble
20 | MSLRLGVTGLSRAGKTVFISSLVHNLLNGGRLPLFEAMRSGRVSNVRLEPQPDDAIPRFQYEDHIQALVRDRLWPDSTRAISELRITLDYQSASGWGRWFSAGKLSIDIVDYPGEWLLDLPLLSQDYKQFSDATVALAGSGIRAELAQEWLAIASSLDINAPADEMTARRLAESFAAYLKACKSDERSLSTLPPGRFLMPGDLEGSPALTFAPLPGVTDAKAPKGSLRAMMERRYDAYKSIVVKPFFREHFARLDRQIVLIDTLQAVNRGPEAVQDLERALGDVLACFRPGTNSILSSLIRRRIDKVLIAATKADHLHHESHDRLERLTRRLVDRAITTIGMNGAGIEVMALASVRATREASVRQDGHELPVIVGTPMAGETINGEIFDGNRKTAIFPGDLPEDPEPLFRSIDQDGDKATLPDVNVVRFRPPNIDEPGSGGIRLSVPHIRLDRAMQFLFGDKLAEGHHHHHH | soluble

Source: the DeepSol protein solubility set
